Results from the supplement of paper PMC7877785.
± gives the uncertainty stated by the source.

Experiment: self-splicing fitness, log relative to wild type (ln ratio); higher = more splicing; Tetrahymena group I intron in knt gene, E. coli kanamycin selection, DiMSum; sequences stand for … in CUCUCU…GGAGGGAAAAGUUAUCAGGCAUGCACCUGGUAGCUAGUCUUUAAACCAAUAGAUUGCAUCGGUUUAAAAGGCAAGACCGUCAAAUUGCGGGAAAGGGGUCAACAGCCGUUCAGUACCAAGUCUCAGGGGAAACUUUGAGAUGGCCUUGCAAAGGGUAUGGUAAUAAGCUGACGGACAUGGUCCUAACCACGCAGCCAAGUCCUAAGUCAACAGAUCUUCUGUUGAUAUGGAUGCAGUUCACAGACUAAAUGUCGGUCGGGGAAGAUGUAUUCUUCUCAUAAGAUAUAGUCGGACCUCUCCUUAAUGGGAGCUAGCGGAUGAAGUGAUGCAACACUGGAGCCGCUGGGAACUAAUUUGUAUGCGAAAGUAUAUUGAUUAGUUUUGGAGUACUCGUGGUCG
Outline: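 Colonies from six replicate transformations of E. coli BL21(DE3) were pooled and amplicon-sequenced on an Illumina HiSeq 2500. The library placed an intron with all eight P1ex-region nucleotides randomised inside the knt kanamycin-resistance gene on pET-22b(+), and cells grew overnight at 37°C or 30°C on LB agar with or without 25 μg/mL kanamycin (plus 100 μg/mL carbenicillin, 50 μM IPTG, 0.2% rhamnose). Fitness is the DiMSum error-weighted combination of wild-type-normalised replicate fold changes, kanamycin versus none.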

Sequence | self-splicing fitness (ln) (30 °C) | self-splicing fitness (ln) (37 °C)
AUGGAGCAAUAUUACGACUG | -2.28 ± 0.3 | 
GUAAAGCAAUAUUACGAUAA | -0.115 ± 0.076 | 0.632 ± 0.11
CCCGAGCAAUAUUACGGGUU | -3.82 ± 0.16 | -2.89 ± 0.18
GAUAAGCAAUAUUACGGUAC | -1.92 ± 0.12 | -0.383 ± 0.17
UAAUAGCAAUAUUACGGGUU | -3.33 ± 0.24 | -2.65 ± 0.21
UCCUAGCAAUAUUACGCUAU | -2.89 ± 0.21 | -2.43 ± 0.27
UUGUAGCAAUAUUACGACUA | -0.429 ± 0.13 | -0.0263 ± 0.16
UCCAAGCAAUAUUACGGAGC | -3.35 ± 0.37 | -2.44 ± 0.26
GCCUAGCAAUAUUACGGAUG | -1.84 ± 0.11 | -0.882 ± 0.12
UCACAGCAAUAUUACGGUGC | -3.04 ± 0.18 | -1.47 ± 0.14
GAGUAGCAAUAUUACGUGUA | -2.97 ± 0.11 | -1.35 ± 0.1
UUGAAGCAAUAUUACGUUUA | -1.08 ± 0.062 | -0.682 ± 0.084
GUUUAGCAAUAUUACGUCAC | -3.24 ± 0.24 | -0.353 ± 0.17
AACUAGCAAUAUUACGCGAA | -2.81 ± 0.16 | -1.05 ± 0.12
UCCCAGCAAUAUUACGAUCU | -3.77 ± 0.23 | -1.95 ± 0.24
ACCAAGCAAUAUUACGUCUC | -2.73 ± 0.094 | -2.28 ± 0.12
UUGCAGCAAUAUUACGGGGG | -2.4 ± 0.17 | -2.23 ± 0.24
ACAUAGCAAUAUUACGGGAC | -3.23 ± 0.14 | -1.37 ± 0.12
UUGUAGCAAUAUUACGGCGG | -0.508 ± 0.11 | -0.332 ± 0.14
CGCUAGCAAUAUUACGUUUU | -3.8 ± 0.16 | -1.68 ± 0.13
UUAGAGCAAUAUUACGGCCG | -0.608 ± 0.15 | -0.234 ± 0.23
CCCGAGCAAUAUUACGCAAA | -4.05 ± 0.35 | -0.386 ± 0.21
AUGGAGCAAUAUUACGAGUC | -2.08 ± 0.41 | 
CAACAGCAAUAUUACGCAAG | -1.48 ± 0.07 | -0.352 ± 0.085
GGGUAGCAAUAUUACGGUGG | -2.55 ± 0.27 | -1.61 ± 0.33

Sequence | self-splicing fitness (ln) (30 °C) | self-splicing fitness (ln) (37 °C)
UCGCAGCAAUAUUACGGGUA | -1.78 ± 0.071 | -1.08 ± 0.052
ACCAAGCAAUAUUACGGACU | -0.029 ± 0.046 | 0.262 ± 0.062
GUUAAGCAAUAUUACGGGGG | -3.44 ± 0.34 | -2.67 ± 0.27
AGUUAGCAAUAUUACGGAGA | -1.99 ± 0.27 | -2.86 ± 0.48
GCAAAGCAAUAUUACGGACC | -0.898 ± 0.092 | 0.746 ± 0.13
UCCAAGCAAUAUUACGGAGU | -2.17 ± 0.12 | -1.44 ± 0.13
AUCGAGCAAUAUUACGACUG | -2.17 ± 0.13 | -1.64 ± 0.15
GUAAAGCAAUAUUACGGGGG | -3.31 ± 0.18 | -2.87 ± 0.31
UUCAAGCAAUAUUACGCACU | 0.0955 ± 0.12 | -0.66 ± 0.14
CGGAAGCAAUAUUACGAACC |  | -1.43 ± 0.41
UUUUAGCAAUAUUACGAACA |  | -0.949 ± 0.48
GACCAGCAAUAUUACGUAAU | -0.385 ± 0.058 | -0.075 ± 0.07
CAUGAGCAAUAUUACGAGGA | -2.72 ± 0.23 | -2.62 ± 0.26
CUUAAGCAAUAUUACGACGU | -2.75 ± 0.16 | -1.44 ± 0.15
CGCCAGCAAUAUUACGAACU |  | 0.274 ± 0.25
CGUCAGCAAUAUUACGUUAA | -3.28 ± 0.17 | -2.38 ± 0.14
GCCUAGCAAUAUUACGAAUC | -1.36 ± 0.066 | 0.0359 ± 0.086
CGAGAGCAAUAUUACGGAUC | -3.76 ± 0.38 | -1.51 ± 0.28
GUUAAGCAAUAUUACGUCCC | 0.552 ± 0.49 | 
AUGUAGCAAUAUUACGUACC | -0.724 ± 0.19 | -1.14 ± 0.18
AUUCAGCAAUAUUACGCCAC |  | -2.32 ± 0.42
CAGGAGCAAUAUUACGAGCA | -2.15 ± 0.33 | -1.53 ± 0.36
CCCAAGCAAUAUUACGUAUC | -4.03 ± 0.14 | -2.52 ± 0.14
GCAAAGCAAUAUUACGCCAC | -3.15 ± 0.27 | -1.93 ± 0.19
UAUCAGCAAUAUUACGGGUA | -1.2 ± 0.092 | -0.623 ± 0.1

Sequence | self-splicing fitness (ln) (30 °C) | self-splicing fitness (ln) (37 °C)
CUACAGCAAUAUUACGGAGU | -3.21 ± 0.13 | -2.89 ± 0.16
AUUAAGCAAUAUUACGGCCC | -0.404 ± 0.27 | -0.419 ± 0.27
AGUCAGCAAUAUUACGUAAU | -1.16 ± 0.062 | -0.387 ± 0.088
AUUGAGCAAUAUUACGCAAG | -3.27 ± 0.19 | -1.31 ± 0.18
CCGUAGCAAUAUUACGUAAA | -3.22 ± 0.13 | -2.38 ± 0.23
CGACAGCAAUAUUACGUGUC | -3.39 ± 0.13 | -2.01 ± 0.12
AGUGAGCAAUAUUACGUAGG | -4.29 ± 0.46 | 
UUUAAGCAAUAUUACGGGAU | -3.4 ± 0.21 | -1.95 ± 0.2
ACGUAGCAAUAUUACGUCGG | -3.32 ± 0.33 | -2.07 ± 0.2
ACGGAGCAAUAUUACGAGCA | -3.2 ± 0.34 | 
CUAAAGCAAUAUUACGAGAU | -2.72 ± 0.16 | -2.05 ± 0.23
UUAAAGCAAUAUUACGAGGA | -1.84 ± 0.13 | -0.545 ± 0.16
AGUUAGCAAUAUUACGGCUC | -3.53 ± 0.26 | -2.46 ± 0.34
AGAAAGCAAUAUUACGGGCU | -1.04 ± 0.12 | -0.993 ± 0.13
CCACAGCAAUAUUACGAAUG | -1.11 ± 0.061 | -0.833 ± 0.071
AUACAGCAAUAUUACGUAAC | -3.13 ± 0.11 | -1.25 ± 0.077
UACCAGCAAUAUUACGGGUU | -2.21 ± 0.085 | -1.46 ± 0.1
UUCGAGCAAUAUUACGGGCA | -2.27 ± 0.17 | -0.711 ± 0.15
GUUGAGCAAUAUUACGUUGU | -3.09 ± 0.23 | -1.68 ± 0.17
CAUCAGCAAUAUUACGGUCA | -1.11 ± 0.076 | -0.81 ± 0.098
UAUUAGCAAUAUUACGAAAU | -2.46 ± 0.35 | -1.53 ± 0.43
CCGGAGCAAUAUUACGUUCU | -1.23 ± 0.14 | 
ACUUAGCAAUAUUACGGAUA | -3.09 ± 0.28 | -1.15 ± 0.18
UGUAAGCAAUAUUACGCACG | -0.966 ± 0.092 | -0.234 ± 0.11
CCUGAGCAAUAUUACGGAUU | -2.74 ± 0.18 | -2.34 ± 0.16

Sequence | self-splicing fitness (ln) (30 °C) | self-splicing fitness (ln) (37 °C)
CGAAAGCAAUAUUACGCUUG | -2.51 ± 0.087 | -2.15 ± 0.091
UAUCAGCAAUAUUACGGGUU | -1.83 ± 0.1 | -0.944 ± 0.11
CCACAGCAAUAUUACGGGAG | -2.29 ± 0.14 | -2.97 ± 0.19
CGACAGCAAUAUUACGGGCU | -4.16 ± 0.2 | -2.53 ± 0.15
AUACAGCAAUAUUACGAGAC | -4.95 ± 0.41 | -1.82 ± 0.18
AGUGAGCAAUAUUACGGAUG | -3.2 ± 0.24 | -3.06 ± 0.3
GCGAAGCAAUAUUACGUUUA | -2.57 ± 0.14 | -1.32 ± 0.11
UUGGAGCAAUAUUACGUUAG | -3.62 ± 0.2 | -1.49 ± 0.22
AAUCAGCAAUAUUACGGACC | 0.313 ± 0.13 | -0.451 ± 0.13
UAGAAGCAAUAUUACGGACG | -0.286 ± 0.13 | 0.291 ± 0.16
GGUCAGCAAUAUUACGUGAA | -0.356 ± 0.086 | 0.381 ± 0.096
GAAGAGCAAUAUUACGUGGC | -2.97 ± 0.24 | -3.01 ± 0.33
AAACAGCAAUAUUACGUGGU | -4.06 ± 0.14 | -2.31 ± 0.15
UAUGAGCAAUAUUACGGUUU | -3.7 ± 0.2 | -2.43 ± 0.21
CUUCAGCAAUAUUACGCCCA | -1.53 ± 0.31 | -0.354 ± 0.26
GGACAGCAAUAUUACGAAGU | -1.34 ± 0.14 | -0.422 ± 0.14
CCGCAGCAAUAUUACGGGGC | -3.25 ± 0.24 | -2.21 ± 0.28
GAUAAGCAAUAUUACGGUUC | -3.24 ± 0.43 | -2.5 ± 0.31
UCUAAGCAAUAUUACGCCAG | -1.18 ± 0.12 | -0.166 ± 0.16
GUUGAGCAAUAUUACGCAAU | -2.68 ± 0.2 | -3.31 ± 0.29
UACUAGCAAUAUUACGUCGA | -2.11 ± 0.12 | -0.821 ± 0.12
CUGAAGCAAUAUUACGUCUG | 0.302 ± 0.069 | 0.352 ± 0.08
UGGAAGCAAUAUUACGCGAG | -1.26 ± 0.19 | 0.167 ± 0.16
